Data reported in the DeepSol protein solubility set.

assay: soluble on expression in E. coli; label from the status in PepcDB or PDB records

| Sequence | soluble on expression in E. coli |
| --- | --- |
| MGSDKIHHHHHHMMFGKSCQVMVKPTGSVCNLDCKYCFYLEKEKLYPDRKNHYKMSEETLELFIRQQIAAQDIDEVIFAWQGGEPTLMGIPFYRKAVEFQQRYCGGKTIVNTFQTNGILINDDWATFFREHDFLVGVSIDGDAALHDEWRVTRSGKPTHEKVENAVRCLAQHDVEFNTLTVVNRTNMHHPVQVYRYLKSIGSRYMQFIPLVERCGENGLAQPQDKHIAMTPWSVDSLQFGQFLNAVFDIWIREDIGDIGIQLFEQTLAAWCGLPPQVCVFAPTCGSAFAMEMNGDVYNCDHFVYPQFKLGNIHQKTLRQMNQGEQNRQFGSDKQRSMAQECHRCQWKFACYGGCPKHRFLPSASGATNHNYLCAGYQAFFSHTATAMSAMRTLYEKGISPAEIKSIFV | not soluble |
| MGSDKIHHHHHHMMGMKETVSNIVTSQAEKGGVKHVYYVACGGSYAAFYPAKAFLEKEAKALTVGLYNSGEFINNPPVALGENAVVVVASHKGNTPETIKAAEIARQHGAPVIGLTWIMDSPLVAHCDYVETYTFGDGKDIAGEKTMKGLLSAVELLQQTEGYAHYDDFQDGVSKINRIVWRACEQVAERAQAFAQEYKDDKVIYTVASGAGYGAAYLQSICIFMEMQWIHSACIHSGEFFHGPFEITDANTPFFFQFSEGNTRAVDERALNFLKKYGRRIEVVDAKELGLSTIKTTVIDYFNHSLFNNVYPVYNRALAEARQHPLTTRRYMWKVEY | not soluble |
| MGSDKIHHHHHHMMIKDLKAHYQLLYAQSGDSPAAVQYPTHDSQVVRFSILSHGIDKTCNIIDLGCGLADMLPYLRQNGFTGKYLGCDFVPEFIELAKGKYGEDLNAKFMEFNILQDEIPTGYDYVLISGIFNNKIKNNQEFIELALKESMAKVNIGVVFNALSDYVQYQDETLFYISPLSLFDYCKRNITPYVTLKHDYLTKPGGFPYEFTMSLRHKEAS | not soluble |
| MGSDKIHHHHHHMMKTELHFKKSLLVSAVALATFALAGCANTAPQGKYVDGVHHVSGKGKKSDITLEVKVEQGNITQVKTLSHKETESLYLNAERLLPEIVSHNGHEGIDAISGATYSSNGILKAINDLPRIDGTKPEYQSVGARSQTGDDDFKLKWSIQPRLGLVKGDYYFEEARFRQGHMGSMLVVVDSNNLQDVILAEFNESGRPNYYTRLYQNVPKRMSEYNFSMGKKKGTAWVQSALTMEKLMMEKDQLTFELNPNYDPKLGNQLTEPNRLKYQGIDIVAGASNSIQQSMIPLTAKIHNRIQAGASDALFYQQAEKLLDEKGRWTGVTAMLRLVVDKNSHKITHAHYDEIFADEKKDIQDASLKAFYRQSKYDSINYVEPARIGFNVMIDALSLHLKEGGSLFNINDLPAAGDTGSYAQTGFTKRSDAWDNYLRLAGILYKQMRADGVINEHALPAQ | not soluble |
| MGSDKIHHHHHHMMQLQVNATEIKTVYEQQLFNGKNFHVFIYNKTESVTGLHQHDYYEFTLVLTGRYYQEINGKRVLLERGDFVFIPVGSNHQSFYEFGATRILNVGISKRFFEQHYLPLLPFCFVASQVYRANSTFLTYIETVIASLNFRGNGLDEFIEVVTFYIINRLRHYREEQVYDDIPQWLKATVEIMHDKTQFGEHALENMVRLSAKSQEYLTRATRRYYSKTPMQIINEIRINFAKKQLEMTNYSVTDIAYEAGYSSPSLFIKTFKKMTSFTPNSYRKRLTEINE | not soluble |
| MGSDKIHHHHHHMMRRRLPSLIALRAFEAVGRTGSVRAAGDELAVSHTVVSRHLQNLQKFLGVALVRGEGRGVILTEAGVSFHAQISQAFDIIARATTAARPSSLPTLNIWCIPGIANRLLLSRLPELTGPPRNWEVNLQPTLTHPDLSRAEADAEIVYADVIDSRGPLMSEILVRPRVFPVASPAYLARYPAITSLEDLSQIALIHEESTMQWTRWFELAGLDDLPPLRGQRLWHAHLAIEAARLGQGVALANDVLVEEDLRSGALVEVITSSVYMETYQLVALKERWDDPAIVALRNWLKQVLAELE | not soluble |
| MGSDKIHHHHHHMMTKTKADKYPQRVRNELRFRELTVLRVERAGAAFQRIVLGGEALEGFASHGFDDHTKLFFPEPGAAFTPPQVTEEGIDWGEGVRPATRDYTPLYDAERHELAYDFYIHDGGIASRWALEAKVGDKLVIGGPRGSLVVPEDYAWQLYVCDESGMPALRRRLLGLRQLPARPQVTAIVTIADASYKDYLADLDGFNIEWVVGHNPAFVAERLAQVKVPAEDYFIWLTGEGAVVKSLLARFEDESIDQQLVRSQAYWHSK | not soluble |
| MGSDKIHHHHHHMNAPDTSLAGASTASTASYDSAADGYNFAYLDEQTKRMLRRALLKAVAVPGYQVPFASREMPLPFGWGTGGIQVTAAIIGRKDTLKVIDQGSDETTNAVNIRRFFARTTGVATTRRTVDATIIQTRHRIPETPLTERQILVYQVPMPEPLFRLEPRVAECRKLHALADYGLISVKLYEDIVHHGSIATTYDYPVIVNHRYLASPSPIPKFDNPKMHMNPALQLFGAGRERRIHAIPPYTPVRSLDFDDHPFEVQKWHHACALCGSTESFLDEMIVDDAGKRMFVCSDSDYCHERRGDADFDPPSRDAGKGEPA | not soluble |
| MGSDKIHHHHHHMNEEEDAFSYLSKLGLTPYEIKVYKTLLIYGPNSATETAKLSKVPQPRVYDIFESLESKGAVEVSPGKRKIYRAVPIDNFIDRKLIEIRDYKKRIESYIEQQKKFKESNPYLWMIKNNFQIREKMKDVINEAENELIASLNYENIRYLKKYFIDAAKRGITVVIVAFPDAELDFLRTFPEDIVIRIRRGSASQVMIADRKHGLINVESTEDSEGYALYFDENELIHILNYYFYHTIWGPSDMFHDFPVRQNIKFSTAWLSCEAIDSFFKRSYSVSGIVTGYSATGQVKIEGTITGIDLIPGFKHTFFIKDNERVYSVGGKTARMEDIKLETLTMNVWIPNKQAISQKQ | not soluble |
| MGSDKIHHHHHHMNEIAEVLPESMKNALSEIPEQQWLEIEEVRIRINRPVELIRRGQPVYLSYAGTAEDAHLILSRLSNYSMYTLEEELKKGYVTIRGGHRVGLAGRVITENGGVKGLRDIASFNIRIARQKLGIAEPLLPYLYQNSWLNTLIIGPPQTGKTTLLRDLARLSSTGKKNMLPVKTGIVDERSEIAGCLRGIPQHQFGQRIDVLDACPKAEGLMMMIRSMSPEVMIVDEIGRMEDTDALLEALHAGVSVIVSAHGWSISDLMKRPSLKRLWEERAFDRYLELSRAKGPGTVSQIYDKDGNVLSRTTGVKTC | not soluble |
| MGSDKIHHHHHHMNEKTTTAQKGAPRARVSATRVRSASRTPHATTVNPADLTVHNHPLARRHYRVATAAIEGFVDLVEHCVRVLIPGALIYARPRMGKTHAIDYLALHLGRNRGDILVLRMSCEYHRTDYEGAFFSALLSAAGIRDPQPRFIADKRFALMRRINEQLQMRSGHIVVLFCDEAQRLSKHALEWLRDVHDQLAHHGVRLITFLVGQPQLMEQKAQYQLSGDEQIVARFMIEQLHFRGITGAVEAATCLASYDMTRYPEDTGSTFTAFFYPDAYAAGLRLEQSAAALWNGFVNAHKVAQLAGPIELHMDYFSRAVESVLLNGPQWDSAGLVLDSAYWERAVRESGYVAAQQTVQPEV | not soluble |
| MGSDKIHHHHHHMNERRLLLTGGWILSMDPAVGDLRQGDILIEGDRIAAVAPRIEAPEAQRIDAAGMIVLPGFVDTHRHTWQSCVRHRYADIDPQIYFAEMLGATGAAFRPDDVYIGTLLGAVSALDSGITTMLDWSHVQNSPEHADAAVLGLRDAGIRGIFAHGWPLVEGASWMFDSQRGHPEDIRRLRERYFSSDDQLLTLAMAARGPEMACREVWLRDLRLARELGIRSSIHMGAYARNGTARGIAQMHEAGVLGDDLTFVHCCCSGEDEIAMMADAGVSASLGVHCELNAQGIGDLPLDRMLAVGIRPSLSGDTETKCSGDMFTQMRHAFAYYRSWMGGNHSRVANAPATLSMRDVLEFATVAGARANGLDHKVGSLTPGKQADIVMIRGDDLNLAPVSDAVGAVVLAAHPGNVDTVFVAGRTVKRHGRMTGVDVDMLRHRAAASQHYVLGLR | not soluble |
| MGSDKIHHHHHHMNFILELLRREQGRQQKELEFSQLPYQQRVAQLKEQKLPLFFYKYHSLHSHNPNKPQEKWEHASDYLINSRFYLSRPANFNDPFDMRAYFTDSVPKEKKRYFLDQLLKIRTPQLTEKDRVLEVKKLLDNPEKLRTIHKLTLDEAVDSFGVSCLSTAPCNILMWSHYANHHRGIAFQFNFAIDIFSFKWLQPVSYSNDFPGIEYFERRDNKYSIALLTKHHGWEYEKEWRIVKPNGAGTYQDFNSKILTGVILGCRIDRKDEDKIRTMIEQRKEQGLSSVKLYKLRQHESRYKLVIKHVE | not soluble |
| MGSDKIHHHHHHMNFKQLNYFLVVAEEGQITSAAKRLFVGQPALSYQLKQLEEELGAKLFIRQPYGIELTEAGKKLRDYAGQILTLAQNVQTEITELDRGGWGRVKLGSVSSSIGELPSAKLTAFARQHPGVSFDIYEDNTFGILDKLQGNLLDLAIVRTPYNRVNLNFVDISDEPMTAVTCQDFFPGKGKVGLQDLAGQPLVIYRRFEDMFKEAFAEKGLTPNFVVKCDDSRTAIRWSDSGLGIALVPESIAKTYARGHIYPIDLAKWRTRLQLVWRKDRVVTPLMRQIIALYAK | not soluble |
| MGSDKIHHHHHHMNFYRDATWVLEDIEKEAAKERISGSMQTLVLKSCKRYKLKSNPKHIYAVLDSCWKYKPYLEKVMKKAHILEDIPKKKGKPLFSRLTLLLLCHDLLLSKQKRIQMGKHPIKDYVLKFKSPLHSEMVKLKLKLKVRELSELVLSEDISNDLPPVRWIRINPLKCHPNGETEPVLAELRKKFTLKVDKWSELVPGSIYYDEFIPNLFGIHPSDKITAHELYKHGKIIIQDRASCFPAHILNPGPSDIVIDSCSAPGNKTTHTASYIYPEPPKDNNTRIYAFEKDPERAKVLQKMIKIAGCSPNISVNVGDFTKLATPEKYKDVTCFIVDPSCSGSGIFGRKFFDSFNRRKIDDKDDDGGIVPDEQEEFIAKEELQTRLAKLSSFQFQMVKHAMSFPAAKKIVYSTCSIHAEENERVVIDLLLDKSVREWGWKVAPKREVIPSWPRRGKVEEFEEVFRDGVTYDPQQLAEGCIRALPKSDGGIGFFAVCFERD | not soluble |
| MGSDKIHHHHHHMNGFSQLEGLRGHPSVVRVIGHRGARGVMPENTLEGFAFTLAAGVRALEFDVVMTADGVPVVTHNHHLANAMTRDGQGHWLTGAERQVAEMTYAEIRALDVGGLDGRTVYGRRFPDQAFLTGIHVPRLGELLDLCAGYGDQAPYLLLELKSDPALMHDHAARAEMVAAVLADVRRYRMEPRTVMHSFDWALLGECRRQAPDLPTSYLSQLPENADDPGEDSAKPVGPDYDRMTESLPQAVASAGGQLWCPYFLDVTPELVAEAHDLGLIVLTWTVNEPEDIRRMATTGVDGIVTDYPGRTQRILIDMGLSWT | not soluble |
| MGSDKIHHHHHHMNGLFVLAYAITNLHPGAGRGYGIVDMPVQRDQMGYPIIYSSAFKGPLKALCAGDAINDHGRIDCKKKGECCCLFGSEPEEEESSKGMLNVMDLPLFSVPAPTFDGFVQVTTNYLIDRARNIFEAISHINGYLGSLGNEIKALLDAQGNKSVEVYDTEAKVVNFDPSSFKLLSSLPLFNNRLAISDDKRVIDKSLIIYTRNRLNLLTKVVEEGGLWSEEYIPMGSIFIGGMIIDNVRNKFCDELSKISCDSRLFLHHFSRIFNADKISEDVYLFYLNIGGKESIGKGLMKVFIGV | not soluble |
| MGSDKIHHHHHHMNHLLKQAKRVASECECGHEHQWIEMDELQLGRNAINYLPEYLHEKGLLHVTIVADANTYAVAGQLVAQLLKGRGIDVENCILKEQGALTLLADEHGLGQLVIGAAKETDVFLAVGAGTIHDLTRIASYKFGKPFIAIPTAPSVDGFTSMGAPVIRDGVKITFQTQAPIALFADLDFLTQAPRSMVAAGFGDMLGKSTSLVDWQVSHMLNDEPFCPAVFHMTKSALTMCMEHADEIAACNEQGIRLLTEALIMSGLAMLIFGHSHPASGAEHHLSHYWEMAFLRSGGTQPLHGAKVGYATMLISALYKNEARKKIETFQGEGSPLVNSIHKHRERLLMLIDTIPESSDIQRLLESVGGAVKSADLALADSLEDEALEKAHKLRERCTLLYCLNEHLKTS | not soluble |
